The values below come from the supplement of paper PMC7125110.

± gives the standard error. This sample holds only a part of the variants without activity.

The chains are these.
B1: glmS ribozyme (parent)
chain: AUAAAAGCGCCAGAACUACAGAAAUGUAGUUGACGAGGAGGAGGUUUAUCGAAUUUUCGGCGGAUGCCUCCAAA

One data set covers variants of B1. Put plainly: self-cleavage kobs at 2500 uM GlcN6P; higher = faster cleavage; RNA array. As to conditions: with glucosamine-6-phosphate. The method in brief:
(§1)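 Tiles of sequenced MiSeq chips were imaged over ~14 h at 37 °C. On them, barcoded ribozyme variants had been transcribed in situ by E. coli RNA polymerase and were tracked via a hybridised Cy3 probe while glucosamine-6-phosphate (40 μM to 10 mM) in HEPES/KCl/Mg(OAc)2 buffer flowed in. Per-tile medians, normalised to baseline and to non-cleaving reference variants, were fit to one- or two-exponential decays for kobs, and weighted Michaelis–Menten fits gave kcat and KM.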
A14G A53G G66A: the “self-cleavage kobs at 2500 uM GlcN6P” value amounted to 0.0162 ± 0.0057 s⁻¹. Regarding A14C U46C C70U, the “self-cleavage kobs at 2500 uM GlcN6P” value was 0.000279 ± 5.2e-05 s⁻¹. With G51C G66C C71A, the “self-cleavage kobs at 2500 uM GlcN6P” value is less than 1e-05 s⁻¹. C34A A48C A64U: the “self-cleavage kobs at 2500 uM GlcN6P” value is less than 1e-05 s⁻¹. With G7A A36U U46G A48C C70U C71G, the “self-cleavage kobs at 2500 uM GlcN6P” value was less than 1e-05 s⁻¹.

With G43A G66C C71A, the “self-cleavage kobs at 2500 uM GlcN6P” value is less than 1e-05 s⁻¹. With A39G A52U C58A, the “self-cleavage kobs at 2500 uM GlcN6P” value was less than 1e-05 s⁻¹. Consider G7U A39G U56G C70A, for which the “self-cleavage kobs at 2500 uM GlcN6P” value was less than 1e-05 s⁻¹. Regarding G29C G62A C70G, the “self-cleavage kobs at 2500 uM GlcN6P” value was determined as 3.86e-05 ± 1.9e-05 s⁻¹.

Consider G13A A52U U54C, for which the “self-cleavage kobs at 2500 uM GlcN6P” value is less than 1e-05 s⁻¹.

Take C16U C50G U54A: the “self-cleavage kobs at 2500 uM GlcN6P” value came out at 9.89e-05 ± 3.1e-05 s⁻¹. Still for that read-out and setting: in the case of A6C U47C G63C it was less than 1e-05 s⁻¹; in that of A14G U57A U65G, 4.18e-05 ± 1.4e-05 s⁻¹. Still for that read-out and setting: with A14U C50G G60C the figure was 0.000405 ± 0.00014 s⁻¹; with U49C C68U, less than 1e-05 s⁻¹; with G32U G63C C71G, 6.45e-05 ± 3.2e-05 s⁻¹. Still for that read-out and setting: with A14G A15U U31G G43U U45A the figure was less than 1e-05 s⁻¹; with C11U G29A C71G, 8.63e-05 ± 3e-05 s⁻¹. A14G G35U G37A: the “self-cleavage kobs at 2500 uM GlcN6P” value was less than 1e-05 s⁻¹. On the same count and under the same terms, in the case of C11U C50A G51U C61A it was 9.9e-05 ± 3.3e-05 s⁻¹. As to G13U U47C A64G, the “self-cleavage kobs at 2500 uM GlcN6P” value was 0.000125 ± 3.1e-05 s⁻¹. On to G9A G62U U69G, for which the “self-cleavage kobs at 2500 uM GlcN6P” value was less than 1e-05 s⁻¹.

In the case of G7C A53U U54G, the “self-cleavage kobs at 2500 uM GlcN6P” value was less than 1e-05 s⁻¹.

For the variant G7C A15C G32U C58U C61U, the “self-cleavage kobs at 2500 uM GlcN6P” value is less than 1e-05 s⁻¹. As for G26U A48G, the “self-cleavage kobs at 2500 uM GlcN6P” value stood at 7.11e-05 ± 1.8e-05 s⁻¹. Still for that read-out and setting: in the case of G13A U45G A64G it was 6.3e-05 ± 1.9e-05 s⁻¹; in that of G13A G32U C67A, 3.47e-05 ± 1.3e-05 s⁻¹. For the variant A39G A42C G43A, the “self-cleavage kobs at 2500 uM GlcN6P” value is less than 1e-05 s⁻¹. As for A36U G40U G62C G66C, the “self-cleavage kobs at 2500 uM GlcN6P” value was less than 1e-05 s⁻¹. Turning to C8A C34A U69C, the “self-cleavage kobs at 2500 uM GlcN6P” value was less than 1e-05 s⁻¹.

Turning to A15U A33C U45G G51U U55G, the “self-cleavage kobs at 2500 uM GlcN6P” value was less than 1e-05 s⁻¹. In the case of C11U G13C G62A C71U, the “self-cleavage kobs at 2500 uM GlcN6P” value is less than 1e-05 s⁻¹. G9U G40A U45G C50A: the “self-cleavage kobs at 2500 uM GlcN6P” value is less than 1e-05 s⁻¹. In the case of G21U G29C A42G, the “self-cleavage kobs at 2500 uM GlcN6P” value was 0.000483 ± 0.00016 s⁻¹. On the same count and under the same terms, with C10U A12U A53U the figure was 4.13e-05 ± 1.7e-05 s⁻¹; with A15U U54G C58A, 3.84e-05 ± 1.4e-05 s⁻¹; with G9A G40U G62U A64U, less than 1e-05 s⁻¹. As to G7U G32C C34U, the “self-cleavage kobs at 2500 uM GlcN6P” value was less than 1e-05 s⁻¹.

C8G C11A A33C: the “self-cleavage kobs at 2500 uM GlcN6P” value is less than 1e-05 s⁻¹.

As for U30C A39U U56G, the “self-cleavage kobs at 2500 uM GlcN6P” value worked out at 2.5e-05 ± 1.2e-05 s⁻¹. In the case of A15U U55G G66U, the “self-cleavage kobs at 2500 uM GlcN6P” value came to 7.43e-05 ± 1.6e-05 s⁻¹. Same read-out and setting: with G32A U45C C71U the figure was 7.08e-05 ± 2.9e-05 s⁻¹; with G7C G51U G59A, less than 1e-05 s⁻¹. For C11U G29A U30G U55A G63C A64G, the “self-cleavage kobs at 2500 uM GlcN6P” value is less than 1e-05 s⁻¹. Turning to C11G G29C A36G U69G, the “self-cleavage kobs at 2500 uM GlcN6P” value amounted to 0.001 ± 0.00046 s⁻¹.

With A12C U55A U69C, the “self-cleavage kobs at 2500 uM GlcN6P” value stood at 0.000484 ± 0.00011 s⁻¹. Still for that read-out and setting: with G26U U54C G59U U69G the figure was less than 1e-05 s⁻¹; with G7C U30A G44A, less than 1e-05 s⁻¹. Consider C11A C16U A53U, for which the “self-cleavage kobs at 2500 uM GlcN6P” value was determined as 5.99e-05 ± 2.5e-05 s⁻¹. A6G C16U C58U U65G: the “self-cleavage kobs at 2500 uM GlcN6P” value is less than 1e-05 s⁻¹.

Take A14G C34U G35A G43C: the “self-cleavage kobs at 2500 uM GlcN6P” value was less than 1e-05 s⁻¹. On the same count and under the same terms, with C34A A48U C50U the figure was less than 1e-05 s⁻¹; with G7U G35U U45A A53C, less than 1e-05 s⁻¹; with G13A A14U A53U U54C G60A, less than 1e-05 s⁻¹. As for A12G A39U U47G, the “self-cleavage kobs at 2500 uM GlcN6P” value stood at 8.38e-05 ± 1.6e-05 s⁻¹. As to A6U G7C A15U G29C G38A G44A C61A, the “self-cleavage kobs at 2500 uM GlcN6P” value was less than 1e-05 s⁻¹.

As to U31G G63C, the “self-cleavage kobs at 2500 uM GlcN6P” value is less than 1e-05 s⁻¹. On to A14C A15G U46C C61G, for which the “self-cleavage kobs at 2500 uM GlcN6P” value was less than 1e-05 s⁻¹. With G9C C11U G29C G59C, the “self-cleavage kobs at 2500 uM GlcN6P” value is less than 1e-05 s⁻¹. Consider U46G G59U G60U, for which the “self-cleavage kobs at 2500 uM GlcN6P” value was less than 1e-05 s⁻¹. Consider U31C G35U A48U U49G U57C, for which the “self-cleavage kobs at 2500 uM GlcN6P” value is less than 1e-05 s⁻¹.

A6U A15U G51C: the “self-cleavage kobs at 2500 uM GlcN6P” value is less than 1e-05 s⁻¹. Take A36G G43A A48U A52G: the “self-cleavage kobs at 2500 uM GlcN6P” value is less than 1e-05 s⁻¹. On to G9U G29A A42G G60C, for which the “self-cleavage kobs at 2500 uM GlcN6P” value is less than 1e-05 s⁻¹.

With C34G A42C G63C U65G, the “self-cleavage kobs at 2500 uM GlcN6P” value was less than 1e-05 s⁻¹. As for U49C G63U G66C, the “self-cleavage kobs at 2500 uM GlcN6P” value was less than 1e-05 s⁻¹.

For G29U A33G G40A, the “self-cleavage kobs at 2500 uM GlcN6P” value was less than 1e-05 s⁻¹. As for C11G A15G G59U, the “self-cleavage kobs at 2500 uM GlcN6P” value was found to be 9.06e-05 ± 3.1e-05 s⁻¹. Consider G37C U55G G63A C71G, for which the “self-cleavage kobs at 2500 uM GlcN6P” value was less than 1e-05 s⁻¹. Consider A14C G43A C61U, for which the “self-cleavage kobs at 2500 uM GlcN6P” value is less than 1e-05 s⁻¹. Turning to C10G G35U G38A G41U, the “self-cleavage kobs at 2500 uM GlcN6P” value was less than 1e-05 s⁻¹. For the variant U46C U57A C71U, the “self-cleavage kobs at 2500 uM GlcN6P” value is 4.35e-05 ± 1.6e-05 s⁻¹.

G26U G29U U55A C70A: the “self-cleavage kobs at 2500 uM GlcN6P” value amounted to 8.18e-05 ± 2.7e-05 s⁻¹. With G7C C8G G40C, the “self-cleavage kobs at 2500 uM GlcN6P” value is less than 1e-05 s⁻¹. For the variant C8U C16U G60C C71G, the “self-cleavage kobs at 2500 uM GlcN6P” value is less than 1e-05 s⁻¹. With A48G C50A U69G, the “self-cleavage kobs at 2500 uM GlcN6P” value amounted to 0.000106 ± 3e-05 s⁻¹. In the case of A12C A15C A48G, the “self-cleavage kobs at 2500 uM GlcN6P” value is less than 1e-05 s⁻¹. In the case of A39G G40U A52G, the “self-cleavage kobs at 2500 uM GlcN6P” value stood at 6.69e-05 ± 2.4e-05 s⁻¹.

Turning to C10A G63A C71U, the “self-cleavage kobs at 2500 uM GlcN6P” value is less than 1e-05 s⁻¹. With A12C A52C, the “self-cleavage kobs at 2500 uM GlcN6P” value is less than 1e-05 s⁻¹.

A further data set covers variants of B1. In words: self-cleavage kobs at 10000 uM GlcN6P; higher = faster cleavage; RNA array. As to conditions: with glucosamine-6-phosphate. The method in brief: as §1
Take A14C U46C C70U: the “self-cleavage kobs at 10000 uM GlcN6P” value is 0.000482 ± 9.4e-05 s⁻¹. On to A14G U57A U65G, for which the “self-cleavage kobs at 10000 uM GlcN6P” value was found to be 6.87e-05 ± 1.5e-05 s⁻¹. Consider G7C A15C G32U C58U C61U, for which the “self-cleavage kobs at 10000 uM GlcN6P” value was less than 1e-05 s⁻¹.

Turning to C8A C34A U69C, the “self-cleavage kobs at 10000 uM GlcN6P” value was less than 1e-05 s⁻¹. Same read-out and setting: with C8G C11A A33C the figure was less than 1e-05 s⁻¹; with U30C A39U U56G, 9.2e-05 ± 2.1e-05 s⁻¹. Regarding A6U G7C A15U G29C G38A G44A C61A, the “self-cleavage kobs at 10000 uM GlcN6P” value is less than 1e-05 s⁻¹.

As for G37C U55G G63A C71G, the “self-cleavage kobs at 10000 uM GlcN6P” value is less than 1e-05 s⁻¹.
